In publication PMC9870903, “Structural mechanism of BRD4-NUT and p300 bipartite interaction in propagating aberrant gene transcription in chromatin in NUT carcinoma” (Nature Communications, 2023):
Like-named read-outs stand apart in the source and are kept apart here.

B1: His-F1c (residues 346–592) (domain or fragment, UniProt Q86Y26 346-592, looked up)
chain: RRQRKAQRPPAPEAPKEIPPEAVKEYVDIMEWLVGTHLATGESDGKQEEEGQQQEEEGMYPDPGLLSYINELCSQKVFVSKVEAVIHPQFLADLLSPEKQRDPLALIEELEQEEGLTLAQLVQKRLMALEEEEDAEAPPSFSGAQLDSSPSGSVEDEDGDGRLRPSPGLQGAGGAACLGKVSSSGKRAREVHGGQEQALDSPRGMHRDGNTLPSPSSWDLQPELAAPQGTPGPLGVERRGSGKVINQ
notes: also called free His-F1c; source: purified; not shown: His, N-terminal, kept

Key:
[1] = molecular target: p300 TAZ2 domain (residues 1723–1812) (UniProt Q09472); assay: NMR titration; 1H-15N HSQC of 15N-TAZ2 (50 μM); NUT fragment or peptide titrated from 7.8 μM to 1000 μM; 200 mM phosphate buffer pH 6.3; overlays at TAZ2/NUT molar ratio 1:3; single-site binding model
[2] = molecular target: p300 TAZ2 domain (residues 1723–1812) (UniProt Q09472); assay: as above; remark: listed apart in the source
[3] = molecular target: the molecule itself; assay: SEC; Superdex 200 Increase 10/300 GL in PBS, 0.3 ml/min; samples 0.8 mM; MBP-TAZ2/His-F1c in 1:1 mix ratio; calibrated with protein standards

Molecule	Kd [1] [µM]	Kd [2] [µM]	further results
NUT fragment of residues 419–470 (as added in NMR) (from UniProt Q86Y26 419-470) (domain or fragment)	36	–	–
NUT fragment of residues 377–418 (as added in NMR) (from UniProt Q86Y26 377-418) (domain or fragment)	32	–	–
FLADLLSPEKQRDPLALIEE [F1c peptide (residues 435–454)]	–	958	–
GMYPDPGLLSYINELC [F1c peptide (residues 403–418)]	–	115	–
B1	–	–	stoichiometry N [3]: 5
